Blank lines part the entries; values can stand above or below the substance they belong to.
Columns and labels:
[1] = target: wild-type human epithelial Na+ channel (α, β, γ ENaC) (human) (UniProt P37088)
[2] = target: human ENaC αβγTh (thrombin consensus sequence LVPRG at γ186-190) (human) (UniProt P37088)
[3] = target: human ENaC αβγ_(A190G) (human) (UniProt P37088)
[4] = target: human ENaC αβγ_(V182G;V193G) (human) (UniProt P37088)
[5] = target: wild-type human epithelial Na+ channel (α, β, γ ENaC) (human) (UniProt P37088); remark: listed apart in the source
[6] = target: human ENaC αβγ_(V182G;V193G) (human) (UniProt P37088); remark: listed apart in the source
[7] = target: wild-type human epithelial Na+ channel (α, β, γ ENaC) (human) (UniProt P37088); remark: listed apart in the source
[8] = target: human ENaC αβγ_(V182G;V193G) (human) (UniProt P37088); remark: listed apart in the source
[9] = target: wild-type human epithelial Na+ channel (α, β, γ ENaC) (human) (UniProt P37088); remark: listed apart in the source
[10] = target: human ENaC αβγ_(A190G) (human) (UniProt P37088); remark: listed apart in the source
[11] = target: human ENaC αβγ_(V182G;V193G) (human) (UniProt P37088); remark: listed apart in the source
[12] = target: wild-type human epithelial Na+ channel (α, β, γ ENaC) (human) (UniProt P37088); remark: listed apart in the source
[13] = target: human ENaC αβγ_(V182G;V193G) (human) (UniProt P37088); remark: listed apart in the source
[14] = target: wild-type human epithelial Na+ channel (α, β, γ ENaC) (human) (UniProt P37088); remark: listed apart in the source

- ΔIPR^Norm, 300 nM TH, aprotinin-treated FRT cells [1]: 0.1
- K1/2 (TH concentration at half maximal stimulation of ΔIPR^Norm) [2]: 14.8 nM
- apparent KM from kobs of INa activation against TH concentration (Eq. 8) [2]: 0.34 µM
Substance: human α thrombin (enzyme)

Substance: porcine pancreatic elastase (from UniProt P00772 27-266) (enzyme)
- K1/2 (PE concentration at half maximal stimulation of ΔIPR^Norm) [3]: 1140 nM
- K1/2 (PE concentration at half maximal stimulation of ΔIPR^Norm) [4]: 35 nM
- apparent KM from kobs of INa activation against PE concentration (Eq. 8) [4]: 0.29 µM
- K1/2 (PE concentration at half maximal stimulation of ΔIPR^Norm) [5]: 77 nM
- apparent KM from kobs of INa activation against PE concentration (Eq. 8) [5]: 0.204 µM
- time constant τ of INa activation by 300 nM PE, aprotinin-treated FRT cells [6]: 3.6 min
- time constant τ of INa activation by 300 nM PE, aprotinin-treated FRT cells [7]: 2 min
- ΔIPR^Norm, 300 nM PE, aprotinin-treated FRT cells (comparison with αβγTh) [1]: 0.7
- time constant τ of INa activation by 1,000 nM PE, aprotinin-treated FRT cells [8]: 2.17 min
- ΔIPR^Norm, 1,000 nM PE, aprotinin-treated FRT cells [8]: 0.89
- time constant τ of INa activation by 1,000 nM PE, aprotinin-treated FRT cells [9]: 1.94 min
- ΔIPR^Norm, 1,000 nM PE, aprotinin-treated FRT cells [9]: 0.7
- ΔIPR^Norm, 1,000 nM PE, aprotinin-treated FRT cells [10]: 0.26

Substance: human neutrophil elastase (from UniProt P08246 30-267) (enzyme)
- K1/2 (NE concentration at half maximal stimulation of ΔIPR^Norm) [11]: 510 nM
- K1/2 (NE concentration at half maximal stimulation of ΔIPR^Norm) [12]: 100 nM
- apparent KM from kobs (1/τ) of INa activation against NE concentration (Eq. 8) [12]: 0.57 µM
- ΔIPR^Norm against NE concentration, 30 to 1,000 nM, aprotinin-treated FRT cells [13]: 0.52
- ΔIPR^Norm against NE concentration, 30 to 1,000 nM, aprotinin-treated FRT cells [14]: 0.75
- ΔIPR^Norm, 300 nM NE, aprotinin-treated FRT cells (comparison with αβγTh) [1]: 0.6

Source: publication PMC2151661
